Here are results for three molecules from patent US20070243170A1 (UNIVERSITY OF CHICAGO, published 2007).

One test has as its target Nectin-1 (HveC) (UniProt Q15223). Kind of test: cell-based or functional assay.
Another test has as its target HveA (formerly HveM) (UniProt Q92956). Kind of test: cell-based or functional assay.
Test [1] deals with wild-type gD1-60 polypeptide (residues 1-60 of mature gD; plasmid pGG5414) (herpes simplex virus 1, UniProt P36318 26-85). Kind of test: co-immunoprecipitation with anti-Myc from HEK293 cells co-transfected with pGG5417+pGG5414.

“IL13-gD chimeric glycoprotein D of recombinant virus R5141 (IL13 in the place of gD residues 1-32, V34S)”: in the test with Nectin-1 (HveC), the Replication of R5141 in J-Nectin cells (virus yield) was 70. The same molecule returned a Replication of R5141 in J-HveA cells (virus yield) in the test with HveA (formerly HveM) of 40.
“IL13-gD chimeric glycoprotein D of recombinant virus R5144 (IL13 in the place of gD residues 1-32, V37S)” came in with a Replication of R5144 in J-Nectin cells (virus yield) in the test with Nectin-1 (HveC) of 50. The Replication of R5144 in J-HveA cells (virus yield) with HveA (formerly HveM) was determined as 300.

B1: gD219-314 polypeptide (mature gD residues 219-314, without transmembrane and cytoplasmic domains, Myc epitope at the C-terminus; plasmid pGG5417) (other)
chain: MLPRFIPENQRTVAVYSLKIAGWHGPKAPYTSTLLPPELSETPNATQPELAPEDPEDSALLEDPVGTVVPQIPPNWHIPSIQDAATPYHPPATPNN
notes: Expressed in HEK293 cells under the CMV promoter; also called C-terminal domain of gD; R5417
Take B1: in test [1], the binding result was “no binding”.
